Laboratory results: article PMC5847613 (Scientific Reports, 2018)

Key:
Settings in all cases: both partners purified
[1] = biological target: recombinant influenza A H1 HA (A/Brisbane/59/07) (Influenza A virus A/Brisbane/59/2007 …, UniProt D5F1Q8, strain); experiment: ELISA
[2] = biological target: recombinant influenza B HA (B/Brisbane/60/08) (Influenza B virus B/Brisbane/60/2008, UniProt C0LT35, strain); experiment: ELISA
[3] = biological target: recombinant HA of A/South Carolina/01/1918 H1N1 (Influenza A virus A/South …, UniProt Q9WFX3, strain); experiment: mPLEX-Flu multiplex fluorescent-bead assay (Luminex)
[4] = biological target: recombinant HA of A/USSR/1977 H1N1 (Influenza A virus A/USSR/90/1977 …, UniProt P03453, strain); experiment: as above
[5] = biological target: T1, recombinant HA of pH1N1 A/California/04/2009 (Influenza A virus A/California/04/2009 …, UniProt C3W5S1, strain); experiment: SPR
T1 construct: source: bought: Protein Sciences Corp., Meriden, CT

B1: KPF1 human monoclonal antibody (antibody, V domains shown)
VH: EVQLLESGGGLVQPGGSLRISCAASGSTFGDFAMSWVRQSPGRGLEWVSVTSAGGDRTYYADSVKGRFTISRDNSKNTLYLQMNSLRGEDTAMYYCARLDSSGFHYGRPGRNWGQGTLVTVSS
VL: DIQMTHSPPSLSASVGDRITITCQASQDISYYLIWYQQKPGKAPKPLIYDASNLEAGVPSRFSASGSGTDFTLTISSLQPEDLATYYCQQYKSLPYTFGQGTKLEIK
notes: also called KPF1 hmAb; hmAb KPF1
binding result [1]: binds
binding result [2]: no binding
binding result [3]: binds
binding result [4]: no binding (tested: 1 μg/ml)
Kd [5]: 0.178 nM
